Results reported in PMC10359603.

Molecular target: QseM (wild type, bacterial two-hybrid)
Assay: bacterial two-hybrid
Details: not given

| percent of parent (% of wild-type FseA) | Substance |
| --- | --- |
| > 90 | FseA (wild type, bacterial two-hybrid) D210A |
| > 90 | FseA (wild type, bacterial two-hybrid) G214 |
| > 90 | FseA (wild type, bacterial two-hybrid) R36A |
| < 10 | FseA (wild type, bacterial two-hybrid) R37A |
| > 90 | FseA (wild type, bacterial two-hybrid) R219A |
| > 90 | FseA (wild type, bacterial two-hybrid) W32A |

Molecular target: FseA (wild type, bacterial two-hybrid)
Assay: bacterial two-hybrid
Details: not given

| percent of parent (% of wild-type QseM) | Substance |
| --- | --- |
| < 10 | QseM (wild type, bacterial two-hybrid) D31A |
| > 90 | QseM (wild type, bacterial two-hybrid) E56A |
| > 90 | QseM (wild type, bacterial two-hybrid) H22A |
| < 10 | QseM (wild type, bacterial two-hybrid) L29A |
| > 90 | QseM (wild type, bacterial two-hybrid) R28A |
| > 90 | QseM (wild type, bacterial two-hybrid) R57A |
| < 10 | QseM (wild type, bacterial two-hybrid) R68A |
| < 10 | QseM (wild type, bacterial two-hybrid) W71A |

Molecular target: 6H-MBP-FseA (Mesorhizobium japonicum R7A)
Assay: SEC; HiLoad 16/600 Superdex 200; 50 mM Na2HPO4/NaH2PO4 pH 6.35, 10% glycerol, 500 mM NaCl; apparent mass from the elution volume
Details: not given

| stoichiometry N | Substance |
| --- | --- |
| 2 | 6H-MBP-FseA (natural protein) |

Test system: 6H-MBP-FseA (Mesorhizobium japonicum R7A (ICEMlSymR7A)?)
Assay: EMSA
Details: dimer concentration 4-130 nM; Hill slope fit, n=3; FseA EMSA: 10 mM Na phosphate pH 6.35, 220 mM NaCl, 6% glycerol, 1 mM DTT, 0.01 ug/ul poly(dI.dC), 0.1 ug/ul herring sperm DNA, 0.1-0.19 ug/ul BSA, 5 nM probe …

| Substance | Kd [µM] |
| --- | --- |
| PrdfS FseA-box probe | 0.03 |

Molecular target: FseA_(1–55) (Mesorhizobium japonicum R7A)
Assay: two-hybrid; Bacteriomatch II bacterial two-hybrid in E. coli; growth on selective medium with 5 mM 3-amino-1,2,4-triazole; strength as CFU/ml on selective against non-selective medium
Details: not given

| interaction strength relative to wild-type FseA [%] | Substance |
| --- | --- |
| 40 | QseM (wild type, bacterial two-hybrid) (natural protein) |
